Reference: paper PMC12650658, “Evaluating the Topological Features of Monomeric and Trimeric TRAF2-C: A Multi-Disciplinary Approach” (Biomolecules, 2025)

Molecular target: the molecule itself
Experiment: dynamic light scattering; TRAF2-C ≈ 4 µM (in monomers), 20 °C, filtered 0.22 µm; bimodal Gaussian fit of the size distribution (monomers, trimers)

B1: C-terminal domain of human TRAF2 (TRAF2-C, residues 310-501) (domain or fragment, UniProt Q12933 310-501, looked up)
chain: DQDKIEALSSKVQQLERSIGLKDLAMADLEQKVLEMEASTYDGVFIWKISDFARKRQEAVAGRIPAIFSPAFYTSRYGYKMCLRIYLNGDGTGRGTHLSLFFVVMKGPNDALLRWPFNQKVTLMLLDQNNREHVIDAFRPDVTSSSFQRPVNDMNIASGCPLFCPVSKMEAKNSYVRDDAIFIKAIVDLTGL
notes: TNF receptor-associated factor 2 (TRAF2), human, C-terminal domain, residues 310-501; Unlabelled protein used for DLS, CD and SANS; Only a pET-based vector is named; the tag is inferred from the Ni-NTA step; also called TRAF2 C-terminal domain; source: E. coli BL21 (DE3), purified (Ni-NTA, Superdex 75 SEC)
stoichiometry N: 3
